Key:
Assay in all cases: cell_activity; SNCA mRNA repression at highest dose
Conditions in all cases: tags: NLS, C-terminal KOX1 KRAB
ZFP-TF SBS-82294 = ZFP-TF SBS-82294 (Artificial Sequence)
ZFP-TF SBS-82150 = ZFP-TF SBS-82150 (Artificial Sequence)
ZFP-TF SBS-82225 = ZFP-TF SBS-82225 (Artificial Sequence)
ZFP-TF SBS-82215 = ZFP-TF SBS-82215 (Artificial Sequence)
ZFP-TF SBS-82197 = ZFP-TF SBS-82197 (Artificial Sequence)
ZFP-TF SBS-82107 = ZFP-TF SBS-82107 (Artificial Sequence)
ZFP-TF SBS-82190 = ZFP-TF SBS-82190 (Artificial Sequence)
ZFP-TF SBS-82092 = ZFP-TF SBS-82092 (Artificial Sequence)
ZFP-TF SBS-82090 = ZFP-TF SBS-82090 (Artificial Sequence)
ZFP-TF SBS-82090 (Artificial Sequence), sequence (chain, as listed by the source): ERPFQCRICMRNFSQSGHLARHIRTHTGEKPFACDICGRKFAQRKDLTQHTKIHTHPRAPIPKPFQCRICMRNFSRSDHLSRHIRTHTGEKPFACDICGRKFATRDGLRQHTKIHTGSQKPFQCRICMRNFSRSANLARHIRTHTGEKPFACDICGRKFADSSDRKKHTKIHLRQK

ZFP-TF SBS-82197 (Artificial Sequence), sequence (chain, as listed by the source): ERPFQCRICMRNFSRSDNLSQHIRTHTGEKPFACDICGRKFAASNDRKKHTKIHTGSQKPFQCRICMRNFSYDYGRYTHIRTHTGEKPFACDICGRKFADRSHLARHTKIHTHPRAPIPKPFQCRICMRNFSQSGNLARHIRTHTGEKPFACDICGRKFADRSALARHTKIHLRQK
ZFP-TF SBS-82215 (Artificial Sequence), sequence (chain, as listed by the source): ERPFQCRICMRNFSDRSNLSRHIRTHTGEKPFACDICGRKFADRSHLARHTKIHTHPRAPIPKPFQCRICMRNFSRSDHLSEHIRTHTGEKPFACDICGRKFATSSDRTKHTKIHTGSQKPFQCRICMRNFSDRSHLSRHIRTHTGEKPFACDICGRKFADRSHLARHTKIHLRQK
ZFP-TF SBS-82190 (Artificial Sequence), sequence (chain, as listed by the source): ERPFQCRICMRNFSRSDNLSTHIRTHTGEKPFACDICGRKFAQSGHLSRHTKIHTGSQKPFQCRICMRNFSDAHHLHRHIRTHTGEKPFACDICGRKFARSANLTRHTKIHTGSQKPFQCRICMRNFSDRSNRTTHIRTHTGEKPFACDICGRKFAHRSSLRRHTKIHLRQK
ZFP-TF SBS-82150 (Artificial Sequence), sequence (chain, as listed by the source): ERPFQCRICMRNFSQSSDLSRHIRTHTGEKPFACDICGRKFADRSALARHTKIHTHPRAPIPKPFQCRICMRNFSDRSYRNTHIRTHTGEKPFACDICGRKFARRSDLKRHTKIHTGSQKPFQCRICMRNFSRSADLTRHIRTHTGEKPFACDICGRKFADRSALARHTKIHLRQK
ZFP-TF SBS-82294 (Artificial Sequence), sequence (chain, as listed by the source): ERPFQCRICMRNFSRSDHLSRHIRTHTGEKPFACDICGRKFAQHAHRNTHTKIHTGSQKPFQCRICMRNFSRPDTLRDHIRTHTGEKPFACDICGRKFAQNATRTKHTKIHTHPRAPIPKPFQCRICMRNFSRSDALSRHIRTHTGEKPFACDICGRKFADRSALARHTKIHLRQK
ZFP-TF SBS-82107 (Artificial Sequence), sequence (chain, as listed by the source): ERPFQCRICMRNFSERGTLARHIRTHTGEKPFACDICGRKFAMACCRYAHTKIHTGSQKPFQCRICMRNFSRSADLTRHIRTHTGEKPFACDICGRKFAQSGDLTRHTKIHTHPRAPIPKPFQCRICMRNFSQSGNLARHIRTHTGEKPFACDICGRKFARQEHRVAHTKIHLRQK
ZFP-TF SBS-82092 (Artificial Sequence), sequence (chain, as listed by the source): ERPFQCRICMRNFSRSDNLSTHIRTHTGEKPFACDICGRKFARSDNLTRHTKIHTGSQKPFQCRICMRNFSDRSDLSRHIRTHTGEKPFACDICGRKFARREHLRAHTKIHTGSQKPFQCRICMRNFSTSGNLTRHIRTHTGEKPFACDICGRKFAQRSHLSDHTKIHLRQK
ZFP-TF SBS-82225 (Artificial Sequence), sequence (chain, as listed by the source): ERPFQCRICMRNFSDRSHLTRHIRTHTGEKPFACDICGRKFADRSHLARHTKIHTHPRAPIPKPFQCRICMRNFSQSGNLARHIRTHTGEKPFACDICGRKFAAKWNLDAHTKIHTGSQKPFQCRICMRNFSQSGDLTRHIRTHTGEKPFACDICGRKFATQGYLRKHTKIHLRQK

B1: SNCA site 82294 (dsDNA)
DNA 1: GGTCGTGGGCACCGGGAGGGG
DNA 2: CCCCTCCCGGTGCCCACGACC
- activity (ZFP-TF SBS-82294): ≥ 95 % repression

B2: SNCA site 82150 (dsDNA)
DNA 1: CGTCGCGGCGCTCGGTCGCTC
DNA 2: GAGCGACCGAGCGCCGCGACG
- activity (ZFP-TF SBS-82150): ≥ 95 % repression

B3: SNCA site 82225 (dsDNA)
DNA 1: GAGCGCACAGGAAGGGCGGAG
DNA 2: CTCCGCCCTTCCTGTGCGCTC
- activity (ZFP-TF SBS-82225): ≥ 95 % repression

B4: SNCA site 82215 (dsDNA)
DNA 1: AGGCGGCACCCGGGGGGGACT
DNA 2: AGTCCCCCCCGGGTGCCGCCT
- activity (ZFP-TF SBS-82215): ≥ 95 % repression

B5: SNCA site 82197 (dsDNA)
DNA 1: CGTCGAATGGCCACTCCCAGT
DNA 2: ACTGGGAGTGGCCATTCGACG
- activity (ZFP-TF SBS-82197): ≥ 95 % repression

B6: SNCA site 82107 (dsDNA)
DNA 1: CAGGGAAAGCAGCGAGCGCCG
DNA 2: CGGCGCTCGCTGCTTTCCCTG
- activity (ZFP-TF SBS-82107): ≥ 95 % repression

B7: SNCA site 82190 (dsDNA)
DNA 1: CGCTCACGAGGGTGGAAAGG
DNA 2: CCTTTCCACCCTCGTGAGCG
- activity (ZFP-TF SBS-82190): ≥ 95 % repression

B8: SNCA site 82092 (dsDNA)
DNA 1: CCGAGATAGGGACGAGGAGC
DNA 2: GCTCCTCGTCCCTATCTCGG
- activity (ZFP-TF SBS-82092): ≥ 95 % repression

B9: SNCA site 82090 (dsDNA)
DNA 1: ATCCGAGATAGGGACGAGGAG
DNA 2: CTCCTCGTCCCTATCTCGGAT
- activity (ZFP-TF SBS-82090): ≥ 95 % repression
